From US20170355774A1 (Regeneron, published 2017)
Blank lines part the entries; values can stand above or below the binder they belong to.

What was measured:
[1] = target: T1, human GITR (amino acids M1-V241, NCBI Accession #NP_004186.1) expressed on cells (human, UniProt Q9Y5U5 26-241); test: cell-based or functional assay
T1 sequence: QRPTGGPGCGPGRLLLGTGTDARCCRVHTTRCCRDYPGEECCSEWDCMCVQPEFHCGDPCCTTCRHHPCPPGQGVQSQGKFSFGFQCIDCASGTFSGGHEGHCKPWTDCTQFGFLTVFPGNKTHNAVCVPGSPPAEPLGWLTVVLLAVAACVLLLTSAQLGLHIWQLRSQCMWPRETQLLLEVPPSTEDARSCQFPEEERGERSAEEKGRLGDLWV

[2] = target: T1, human GITR (amino acids M1-V241, NCBI …); test: cell-based or functional assay; remark: listed apart in the source
[3] = target: T1, human GITR (amino acids M1-V241, NCBI …); test: cell-based or functional assay; remark: listed apart in the source
[4] = target: T1, human GITR (amino acids M1-V241, NCBI …); test: ECL cell binding, hGITR/HEK293-D9
Summary of the method: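 Cells blocked with 2% BSA, then antibody dilutions from 1.7 pM to 100 nM added 1 h at RT. Bound antibody detected with SULFO-TAG anti-human kappa antibody, electrochemiluminescence read, RLU fitted by four-parameter logistic; signal at 100 nM on hGITR cells versus parental cells also recorded.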

[5] = target: T2, hGITR.mmh (human); test: SPR 37C, mAb capture
T2 construct: soluble monomeric construct; also called human (h) GITR.mmh; monomeric human GITR
T2 chain: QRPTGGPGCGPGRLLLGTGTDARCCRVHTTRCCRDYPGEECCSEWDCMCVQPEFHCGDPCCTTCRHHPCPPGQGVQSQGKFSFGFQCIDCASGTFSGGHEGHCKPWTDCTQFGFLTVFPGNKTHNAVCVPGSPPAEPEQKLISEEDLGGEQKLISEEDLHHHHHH

[6] = target: T3, mfGITR.mmh (Macaca fasicularis); test: SPR 37C, mAb capture
T3 construct: soluble monomeric construct; also called Macaca fasicularis (mf) GITR.mmh; cynomolgus GITR protein
T3 chain: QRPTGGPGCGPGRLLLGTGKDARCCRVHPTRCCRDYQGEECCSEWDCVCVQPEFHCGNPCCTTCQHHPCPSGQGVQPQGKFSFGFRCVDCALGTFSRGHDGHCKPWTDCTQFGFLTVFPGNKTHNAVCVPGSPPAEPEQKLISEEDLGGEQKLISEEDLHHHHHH

[7] = target: T4, hGITR.mFc (human); test: SPR 37C, mAb capture
T4 construct: soluble dimeric construct with mouse Fc; also called dimeric human GITR
T4 chain: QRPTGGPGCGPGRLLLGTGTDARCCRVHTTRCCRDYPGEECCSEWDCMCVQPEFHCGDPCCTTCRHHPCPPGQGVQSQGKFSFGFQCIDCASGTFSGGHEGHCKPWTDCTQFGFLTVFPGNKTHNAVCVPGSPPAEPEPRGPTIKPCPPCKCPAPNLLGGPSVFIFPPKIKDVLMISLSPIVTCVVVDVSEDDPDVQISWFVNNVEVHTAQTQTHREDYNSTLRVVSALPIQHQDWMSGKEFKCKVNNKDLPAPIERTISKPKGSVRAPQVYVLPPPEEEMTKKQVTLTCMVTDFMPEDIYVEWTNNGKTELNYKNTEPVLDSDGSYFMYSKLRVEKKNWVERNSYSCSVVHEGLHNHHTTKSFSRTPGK

[8] = target: T1, human GITR (amino acids M1-V241, NCBI …); test: cell-based or functional assay; remark: listed apart in the source

- % Activation, NF-kB-Luc, non-anchored [1]: 20%
- % Blocking, NF-kB-Luc, non-anchored [1]: 30%
- EC50, hGITR activation, NF-kB-Luc, non-anchored [1]: 1.3 nM
- IC50, blocking of hGITRL stimulation, NF-kB-Luc, non-anchored [1]: 1.2 nM
- fold activation, T-cell proliferation, plate-bound Ab 10.6 nM, donor 1 [2]: 2 fold
- fold activation, T-cell proliferation, plate-bound Ab 10.6 nM, donor 2 [2]: 12 fold
- fold activation, T-cell proliferation, plate-bound Ab 10.6 nM, donor 3 [2]: 12 fold
- fold activation, T-cell proliferation, plate-bound Ab 10.6 nM, donor 4 [2]: 13 fold
- fold activation, T-cell proliferation, plate-bound Ab 10.6 nM, donor 5 [2]: 12 fold
- fold activation, T-cell proliferation, plate-bound Ab 10.6 nM, donor 6 [2]: 39 fold
- fold activation, T-cell proliferation, plate-bound Ab 10.6 nM, donor 7 [2]: 11 fold
- fold activation, T-cell proliferation, plate-bound Ab 10.6 nM, donor 8 [2]: 6 fold
- fold activation, T-cell proliferation, plate-bound Ab 10.6 nM, mean [2]: 13 fold
- fold activation, T-cell proliferation, 22 nM, non-anchored, donor 1 [3]: 0.5 fold
- fold activation, T-cell proliferation, 22 nM, non-anchored, donor 2 [3]: 0.8 fold
- fold activation, T-cell proliferation, 22 nM, non-anchored, donor 3 [3]: 1.1 fold
- fold activation, T-cell proliferation, 22 nM, non-anchored, donor 4 [3]: 0.8 fold
- fold activation, T-cell proliferation, 22 nM, non-anchored, mean [3]: 0.8 fold
- Average Signal (RLU) at 100 nM [4]: 4910 RLU
- EC50 [4]: 0.3 nM
- Kd [5]: 82.5 nM
- koff [5]: 0.0177 s⁻¹
- kon [5]: 214000 M⁻¹ s⁻¹
- t½ [5]: 0.7 min
- Kd [6]: 22.8 nM
- koff [6]: 0.00165 s⁻¹
- kon [6]: 72300 M⁻¹ s⁻¹
- t½ [6]: 7 min
- Kd [7]: 0.554 nM
- koff [7]: 0.000472 s⁻¹
- kon [7]: 853000 M⁻¹ s⁻¹
- t½ [7]: 24.5 min
- fold activation, T-cell proliferation, 33 nM, FcgR anchored, donor 1 [8]: 0.9 fold
- fold activation, T-cell proliferation, 33 nM, FcgR anchored, donor 2 [8]: 0.7 fold
- fold activation, T-cell proliferation, 33 nM, FcgR anchored, donor 3 [8]: 1.1 fold
- fold activation, T-cell proliferation, 33 nM, FcgR anchored, donor 4 [8]: 1.5 fold
- fold activation, T-cell proliferation, 33 nM, FcgR anchored, donor 5 [8]: 1.5 fold
- fold activation, T-cell proliferation, 33 nM, FcgR anchored, mean [8]: 1.1 fold
B1: H4H14539P2 (antibody, human IgG4, V domains shown)
VH: QVQLVESGGGVVQPGRSLRLSCAASGFSFSSYGMHWVRQAPGKGLEWMAVIWYAGSNKFYADSVKGRFTISRDNSKNTLYLQMNSLTAEDTAVYYCARGSSLAAPDLYKYGMDVWGQGTTVTVSS
VL: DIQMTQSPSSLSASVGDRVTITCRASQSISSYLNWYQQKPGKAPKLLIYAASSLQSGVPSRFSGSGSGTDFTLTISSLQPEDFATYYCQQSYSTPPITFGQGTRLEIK
notes: human IgG4 (H4H)

- % Activation, NF-kB-Luc, non-anchored [1]: 20%
- % Blocking, NF-kB-Luc, non-anchored [1]: 80%
- EC50, hGITR activation, NF-kB-Luc, non-anchored [1]: 1.2 nM
- IC50, blocking of hGITRL stimulation, NF-kB-Luc, non-anchored [1]: 0.9 nM
- fold activation, T-cell proliferation, plate-bound Ab 10.6 nM, donor 1 [2]: 0 fold
- fold activation, T-cell proliferation, plate-bound Ab 10.6 nM, donor 2 [2]: 3 fold
- fold activation, T-cell proliferation, plate-bound Ab 10.6 nM, donor 3 [2]: 3 fold
- fold activation, T-cell proliferation, plate-bound Ab 10.6 nM, donor 4 [2]: 4 fold
- fold activation, T-cell proliferation, plate-bound Ab 10.6 nM, donor 5 [2]: 3 fold
- fold activation, T-cell proliferation, plate-bound Ab 10.6 nM, donor 6 [2]: 6 fold
- fold activation, T-cell proliferation, plate-bound Ab 10.6 nM, donor 7 [2]: 4 fold
- fold activation, T-cell proliferation, plate-bound Ab 10.6 nM, donor 8 [2]: 1 fold
- fold activation, T-cell proliferation, plate-bound Ab 10.6 nM, mean [2]: 3 fold
- fold activation, T-cell proliferation, 22 nM, non-anchored, donor 1 [3]: 0.7 fold
- fold activation, T-cell proliferation, 22 nM, non-anchored, donor 2 [3]: 0.9 fold
- fold activation, T-cell proliferation, 22 nM, non-anchored, donor 3 [3]: 1 fold
- fold activation, T-cell proliferation, 22 nM, non-anchored, donor 4 [3]: 1.7 fold
- fold activation, T-cell proliferation, 22 nM, non-anchored, mean [3]: 1.1 fold
- Average Signal (RLU) at 100 nM [4]: 8390 RLU
- EC50 [4]: 1.4 nM
- Kd [5]: 64.7 nM
- koff [5]: 0.0143 s⁻¹
- kon [5]: 221000 M⁻¹ s⁻¹
- t½ [5]: 0.8 min
- binding result [6]: no binding
- Kd [7]: 1.15 nM
- koff [7]: 0.00104 s⁻¹
- kon [7]: 904000 M⁻¹ s⁻¹
- t½ [7]: 11.1 min
- fold activation, T-cell proliferation, 33 nM, FcgR anchored, donor 1 [8]: 1.8 fold
- fold activation, T-cell proliferation, 33 nM, FcgR anchored, donor 2 [8]: 1 fold
- fold activation, T-cell proliferation, 33 nM, FcgR anchored, donor 3 [8]: 1.4 fold
- fold activation, T-cell proliferation, 33 nM, FcgR anchored, donor 4 [8]: 1.5 fold
- fold activation, T-cell proliferation, 33 nM, FcgR anchored, donor 5 [8]: 2 fold
- fold activation, T-cell proliferation, 33 nM, FcgR anchored, mean [8]: 1.5 fold
B2: H4H14470P (antibody, human IgG4, V domains shown)
VH: QVQLVESGGGVVQPGRSLRLSCAASGFTVRNYGMHWVRQAPGKGLEWVAVIWYDGSNKYYADSVKGRFTISRDNSKNTLFLQMNSLRAEDTAVYYCARGGELVRGDYYYGMDVWGQGTTVTVSS
VL: DIQMTQSPSSLSASVGDRVTITCRASQGIRNDLGWYQQKPGKAPKRLIYGASSLQSGVPSRFSGSGSGTEFTLTISSLQPEDFATYYCLQHNSYPYTFGQGTKLEIK
notes: human IgG4 (H4H)
